Data reported in patent EP4814012A1 (The United Bio-Technology (Hengqin) Co., Ltd., dated 2026).

B1: MTM (bispecific antibody, human IgG2, lambda)
heavy: QMQLVESGGGVVQPGRSLRLSCAASGFTFRTYGMHWVRQAPGKGLEWVAVIWYDGSNKHYADSVKGRFTITRDNSKNTLNLQMNSLRAEDTAVYYCARAPQWELVHEAFDIWGQGTMVTVSSASTKGPSVFPLAPCSRSTSESTAALGCLVKDYFPEPVTVSWNSGALTSGVHTFPAVLQSSGLYSLSSVVTVPSSNFGTQTYTCNVDHKPSNTKVDKTVERKCCVECPPCPAPPVAGPSVFLFPPKPKDTLMISRTPEVTCVVVDVSHEDPEVQFNWYVDGVEVHNAKTKPREEQFNSTFRVVSVLTVVHQDWLNGKEYKCKVSNKGLPAPIEKTISKTKGQPREPQVYTLPPSREEMTKNQVSLTCLVKGFYPSDIAVEWESNGQPENNYKTTPPMLDSDGSFFLYSKLTVDKSRWQQGNVFSCSVMHEALHNHYTQKSLSLSPGKGGGGSGGGGSQVQLVQSGAEVKKPGASVKVSCKASGYTFTTYYIYWVRQAPGQCLEWMGGSNPSTGGTLDNEKFKTRVTMTVDKSTSTAYMELSSLRSEDTAVYYCTRSGRYAPFTYWGCGTLVTVSSGGGGSGGGGSGGGGSGGGGSDIQMTQSPSSLSASVGDRVTITCKASQDVSTSVAWYQQKPGKAPKLLIYSASYRFTGVPSRFSGSGSGTDFTFTISSLQPEDFATYYCQHYSTTPFTFGCGTKLEIK
light: SYVLTQPPSVSVAPGQTARITCGGNNLGSKSVHWYQQKPGQAPVLVVYDDSDRPSWIPERFSGSNSGNTATLTISRGEAGDEADYYCQVWDSSSDHVVFGGGTKLTVLGQPKAAPSVTLFPPSSEELQANKATLVCLISDFYPGAVTVAWKADSSPVKAGVETTTPSKQSNNKYAASSYLSLTPEQWKSHRSYSCQVTHEGSTVEKTVAPTECS
notes: the junction should be checked against them; also called MTM bispecific antibody; MTM molecule
B2: m8 (antibody, human IgG4 S228P, kappa, V domains shown)
VH: QVQLVQSGAEVKKPGASVKVSCKASGYTFTTYYIYWVRQAPGQGLEWMGGSNPSTGGTLDNEKFKTRVTMTVDKSTSTAYMELSSLRSEDTAVYYCTRSGRYAPFTYWGQGTLVTVSS
VL: DIQMTQSPSSLSASVGDRVTITCKASQDVSTSVAWYQQKPGKAPKLLIYSASYRFTGVPSRFSGSGSGTDFTFTISSLQPEDFATYYCQHYSTTPFTFGQGTKLEIKR
notes: also called m8 molecule; anti-IL-4R antibody m8
B3: 1.34.4-z18 (antibody, human IgG4, V domains shown)
VH: QVQLVQSGAEVKKPGASVKVSCKASGYTFTTYYIYWVRQAPGQGLEWMGGSNPSTGGTLFNEKFKTRVTMTVDKSTSTAYMELSSLRSEDTAVYYCTRSGRYAPFTYWGQGTLVTVSS
VL: DIQMTQSPSSLSASVGDRVTITCKASQDVSTSVAWYQQKPGKAPKLLIYSASYRFTGVPSRFSGSGSGTDFTFTISSLQPEDFATYYCQQYSTTPFTFGQGTKLEIK
notes: Humanized with back-mutations; also called 1.34.4-z18 humanized antibody molecule
B4: 1.34.4 (humanized, CDR-grafted) (antibody, V domains shown)
VH: QVQLVQSGAEVKKPGASVKVSCKASGYTFTTYYIYWVRQAPGQGLEWMGGSNPSTGGTLFNEKFKTRVTMTRDTSTSTVYMELSSLRSEDTAVYYCARSGRYAPFTYWGQGTLVTVSS
VL: DIQMTQSPSSLSASVGDRVTITCKASQDVSTSVAWYQQKPGKAPKLLIYSASYRFTGVPSRFSGSGSGTDFTLTISSLQPEDFATYYCQQYSTTPFTFGQGTKLEIK
B5: m27 (antibody, V domains shown)
VH: QVQLVQSGAEVKKPGASVKVSCKASGYTFTTYYIYWVRQAPGQGLEWMGGSNPSTGGTLENEKFKTRVTMTVDKSTSTAYMELSSLRSEDTAVYYCTRSGRYATFTYWGQGTLVTVSS
VL: DIQMTQSPSSLSASVGDRVTITCKASQDVSTSVAWYQQKPGKAPKLLIYSASYRFTGVPSRFSGSGSGTDFTFTISSLQPEDFATYYCVHYSTTPFTFGQGTKLEIK
notes: captured by anti-human Fc); also called m27 molecule
B6: m21 (antibody, V domains shown)
VH: QVQLVQSGAEVKKPGASVKVSCKASGYTFTTYYIYWVRQAPGQGLEWMGGSNPSTGGTLENEKFKTRVTMTVDKSTSTAYMELSSLRSEDTAVYYCTRSGRYAPFTYWGQGTLVTVSS
VL: DIQMTQSPSSLSASVGDRVTITCKASQDVSTSVAWYQQKPGKAPKLLIYSASYRFTGVPSRFSGSGSGTDFTFTISSLQPEDFATYYCVHYSTTPFTFGQGTKLEIK
notes: captured by anti-human Fc); also called m21 molecule
B7: Dupilumab (antibody, V domains shown)
VH: EVQLVESGGGLEQPGGSLRLSCAGSGFTFRDYAMTWVRQAPGKGLEWVSSISGSGGNTYYADSVKGRFTISRDNSKNTLYLQMNSLRAEDTAVYYCAKDRLSITIRPRYYGLDVWGQGTTVTVSS
VL: DIVMTQSPLSLPVTPGEPASISCRSSQSLLYSIGYNYLDWYLQKSGQSPQLLIYLGSNRASGVPDRFSGSGSGTDFTLKISRVEAEDVGFYYCMQALQTPYTFGQGTKLEIKR
B8: MMT (bispecific antibody, human IgG4 S228P, kappa)
heavy: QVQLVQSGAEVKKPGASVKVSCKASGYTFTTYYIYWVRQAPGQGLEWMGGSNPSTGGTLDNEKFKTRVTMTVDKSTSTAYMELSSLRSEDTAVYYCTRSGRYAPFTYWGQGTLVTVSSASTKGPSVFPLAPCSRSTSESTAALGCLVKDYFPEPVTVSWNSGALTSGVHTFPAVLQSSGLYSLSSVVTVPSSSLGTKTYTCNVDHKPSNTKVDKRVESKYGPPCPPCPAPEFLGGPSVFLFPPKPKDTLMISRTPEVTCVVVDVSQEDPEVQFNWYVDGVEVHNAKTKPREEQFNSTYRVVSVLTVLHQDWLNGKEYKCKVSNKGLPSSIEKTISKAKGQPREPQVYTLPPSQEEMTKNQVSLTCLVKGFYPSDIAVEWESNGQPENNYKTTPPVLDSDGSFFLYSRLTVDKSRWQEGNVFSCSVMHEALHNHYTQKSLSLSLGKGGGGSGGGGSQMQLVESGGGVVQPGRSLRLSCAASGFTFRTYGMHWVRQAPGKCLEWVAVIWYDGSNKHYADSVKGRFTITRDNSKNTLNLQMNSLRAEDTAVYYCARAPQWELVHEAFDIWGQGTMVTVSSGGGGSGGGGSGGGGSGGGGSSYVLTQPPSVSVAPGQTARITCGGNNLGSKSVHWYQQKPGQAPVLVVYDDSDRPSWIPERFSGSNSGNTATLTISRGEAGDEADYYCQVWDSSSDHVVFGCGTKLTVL
light: DIQMTQSPSSLSASVGDRVTITCKASQDVSTSVAWYQQKPGKAPKLLIYSASYRFTGVPSRFSGSGSGTDFTFTISSLQPEDFATYYCQHYSTTPFTFGQGTKLEIKRTVAAPSVFIFPPSDEQLKSGTASVVCLLNNFYPREAKVQWKVDNALQSGNSQESVTEQDSKDSTYSLSSTLTLSKADYEKHKVYACEVTHQGLSSPVTKSFNRGEC
notes: the junction should be checked against them; also called MMT bispecific antibody; MMT molecule
B9: 1.34.4-Murine (antibody, V domains shown)
VH: QVQLQQPGAELVKPGASMKLSCKASGYTFTTYYIYWVKQRPGQGLEWIGGSNPSTGGTLFNEKFKTKATLTVDKYSSTAYMELSSLTFEDSAVYFCTRSGRYAPFTYWGQGTLVTVSA
VL: DIVMTQSHKVLSTSVGDRVIITCKASQDVSTSVAWYQQRPGHSPKLLIYSASYRFTGVPDRFTGSGSGTDFTFTISSVQAEDLAVYNCQQYSTTPFTFGSGTKLEIK
notes: See recheck
B10: 2.46.13-Murine (antibody, V domains shown)
VH: DVKLVESGGGLVKLGGSLKLSCAASGFTFSSYYMSWVRQTPEKRLELVAAINSNGGSTYSPDTVKGRFTISRDNAKNTLYLQMSSLKSEDTALYYCARRSLLGNHRDWYFDVWGAGTTVTVSS
VL: DIQMTQSPASLSASVGETVTITCRASENIYSYLAWYQQKQGKSPQLLVYNAKTLADGVPSRFSGSGSGTQFSLKINTLQPEDFGSYYCLHHYGTPLTFGAGTKLELK
notes: See recheck

Legend:
human IL-4Rα on cells [1] = molecular target: T1, human IL-4Rα on cells (human, UniProt P24394 26-825); assay: cell-based or functional assay
hIL-4Rα.ECD [2] = molecular target: T2, hIL-4Rα.ECD (human, UniProt P24394 26-232); assay: SPR (Biacore 8K), antibody captured, hIL-4Rα.ECD analyte, 25°C
T2 construct: extracellular domain; also called hIL-4Rα protein

hTSLP [3] = molecular target: T3, hTSLP (human, UniProt Q969D9 29-159); assay: SPR (Biacore 8K), antibody captured, hTSLP analyte, 25°C
T3 construct: also called human TSLP; thymic stromal lymphopoietin

hTSLP [4] = molecular target: T3, hTSLP; assay: cell-based or functional assay
human IL-4Rα on cells [5] = molecular target: T1, human IL-4Rα on cells; assay: cell-based or functional assay; remark: listed apart in the source
human IL-4Rα on cells [6] = molecular target: T1, human IL-4Rα on cells; assay: cell-based or functional assay; remark: listed apart in the source
human IL-4Rα on cells [7] = molecular target: T1, human IL-4Rα on cells; assay: cell-based or functional assay; remark: listed apart in the source
hIL-4Rα.ECD [8] = molecular target: T2, hIL-4Rα.ECD; assay: SPR, antibody captured by anti-human Fc on CM5, hIL-4Rα.ECD analyte
hIL-4Rα.ECD [9] = molecular target: T2, hIL-4Rα.ECD; assay: SPR (Biacore 8K), method same as 1.9, hIL-4Rα.ECD analyte
human IL-4Rα on cells [10] = molecular target: T1, human IL-4Rα on cells; assay: cell-based or functional assay; remark: listed apart in the source
human IL-4Rα on cells [11] = molecular target: T1, human IL-4Rα on cells; assay: flow cytometry on CHO-K1 cells overexpressing hIL-4Rα
hIL-4Rα.ECD [12] = molecular target: T2, hIL-4Rα.ECD; assay: SPR (Biacore 8K), antibody captured by anti-mouse Fc, hIL-4Rα.ECD analyte, 25°C

Binder | IC50 (pM), hIL-13 inhibitory activity, reporter gene assay (HEK-293T.STAT6-GFP cells) (human IL-4Rα on cells [1]) | Kd (hIL-4Rα.ECD [2]) | koff (hIL-4Rα.ECD [2]) | kon (hIL-4Rα.ECD [2]) | IC50(pM), hIL-13 Blocking Activity, TF-1 proliferation inhibition assay (human IL-4Rα on cells [6]) | IC50(pM), hIL-4 Blocking Activity by Reporter Gene Assay (human IL-4Rα on cells [7]) | Kd (hIL-4Rα.ECD [8]) | koff (hIL-4Rα.ECD [8]) | kon (hIL-4Rα.ECD [8]) | IC50 (nM), Cell-based Assay Data (hIL-13), STAT6-GFP reporter gene assay (human IL-4Rα on cells [10]) | EC50 (human IL-4Rα on cells [11]) | further results
B1 | 66.5 pM | 0.0659 nM | 3.48e-05 s⁻¹ | 528000 M⁻¹ s⁻¹ | – | – | – | – | – | – | – | Kd (hTSLP [3]): 0.00296 nM; koff (hTSLP [3]): 3.5e-05 s⁻¹; kon (hTSLP [3]): 1.18e+07 M⁻¹ s⁻¹; IC50 (nM), hTSLP inhibitory activity, reporter gene assay (HEK-293T-hTSLPR-IL7Ra-STAT5-Luciferase cells) (hTSLP [4]): 0.14 nM; IC50(pM), hIL-4 inhibitory activity, reporter gene assay (HEK-293T.STAT6-GFP cells) (human IL-4Rα on cells [5]): 170 pM
B2 | 80 pM | 0.0489 nM | 1.39e-05 s⁻¹ | 285000 M⁻¹ s⁻¹ | 125 pM | 16.4 pM | 0.0437 nM | 3.95e-05 s⁻¹ | 903000 M⁻¹ s⁻¹ | – | – | IC50(pM), hIL-4 inhibitory activity, reporter gene assay (HEK-293T.STAT6-GFP cells) (human IL-4Rα on cells [5]): 210 pM
B3 | – | – | – | – | – | – | – | – | – | – | – | Kd (hIL-4Rα.ECD [9]): 0.567 nM; koff (hIL-4Rα.ECD [9]): 0.000137 s⁻¹; kon (hIL-4Rα.ECD [9]): 242000 M⁻¹ s⁻¹
B4 | – | – | – | – | – | – | – | – | – | – | – | Kd (hIL-4Rα.ECD [9]): 0.512 nM; koff (hIL-4Rα.ECD [9]): 0.0001 s⁻¹; kon (hIL-4Rα.ECD [9]): 196000 M⁻¹ s⁻¹
B5 | – | – | – | – | 58.8 pM | 249 pM | 0.196 nM | 0.000112 s⁻¹ | 568000 M⁻¹ s⁻¹ | – | – | –
B6 | – | – | – | – | 66.5 pM | 286 pM | 0.133 nM | 7.76e-05 s⁻¹ | 582000 M⁻¹ s⁻¹ | – | – | –
B7 | 41 pM | 0.0616 nM | 5.7e-05 s⁻¹ | 924000 M⁻¹ s⁻¹ | 140 pM | 201 pM | 0.0379 nM | 5.4e-05 s⁻¹ | 1.43e+06 M⁻¹ s⁻¹ | 0.81 nM | 0.3 nM | –
B8 | 133 pM | 0.0598 nM | 4.35e-05 s⁻¹ | 727000 M⁻¹ s⁻¹ | – | – | – | – | – | – | – | Kd (hTSLP [3]): 0.0188 nM; koff (hTSLP [3]): 5.88e-05 s⁻¹; kon (hTSLP [3]): 3.14e+06 M⁻¹ s⁻¹; IC50 (nM), hTSLP inhibitory activity, reporter gene assay (HEK-293T-hTSLPR-IL7Ra-STAT5-Luciferase cells) (hTSLP [4]): 0.3 nM
B9 | – | – | – | – | – | – | – | – | – | 1.38 nM | 0.35 nM | Kd (hIL-4Rα.ECD [12]): 0.369 nM; koff (hIL-4Rα.ECD [12]): 0.000133 s⁻¹; kon (hIL-4Rα.ECD [12]): 361000 M⁻¹ s⁻¹
B10 | – | – | – | – | – | – | – | – | – | 2.23 nM | 0.28 nM | Kd (hIL-4Rα.ECD [12]): 0.306 nM; koff (hIL-4Rα.ECD [12]): 0.000118 s⁻¹; kon (hIL-4Rα.ECD [12]): 385000 M⁻¹ s⁻¹
